Source: patent publication CN114935649A (dated 2022)

Molecular target: T1, HPV6和HPV11的共同抗原表位肽 (SEQ ID NO:1) (HPV6 and HPV11)
T1 construct: also called 序列1的免疫抗原肽; HPV6和HPV11高免疫原性抗原肽
T1 peptide: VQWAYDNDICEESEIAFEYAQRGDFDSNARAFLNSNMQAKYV
Assay: SPR (ProteOn XPR36), antigen amine-coupled to GLC chip, antibody as analyte at 18.75-600 nM

B1: 单克隆抗体7C4c (antibody, V domains shown)
VH: EVQLEESATELARPGASVKLSCKASGYIFSGRWQAWIKQRPGQGLEWIGQELMWQAPHILEDSPGGKATLTADKSSSTAYMQLSSLASEDSAVYYCAGSQKWTACWGLGTTLAVSS
VL: DIVITQRPALMAASPGEKVTITCSTGYYPINQWCSWYQQKSGISPKPWIYINHDKTNGVPARFSGSGSGTSYSLTITSMEAEDAATYYCHSVQSSSCPFGAGTKLELK
Question: For B1, which Kd is on record?
Answer: 3.24 nM
